experiment: yeast display, Sf9 membrane polyspecificity reagent, FACS + sequencing; frameworks hold sequencing errors
Summary of the method: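 Nanobodies came from a synthetic yeast display library in Saccharomyces cerevisiae BJ5465, induced with galactose for 36–48 hours and stained for 1 hour at 4 °C with 10% biotinylated, detergent-solubilized Sf9 membrane reagent. Cells were enriched on streptavidin microbeads and then FACS-sorted, with low and high (top ~1%) gates set on anti-HA fluorescence for expression and streptavidin fluorescence for reagent binding. Each polyreactivity label reflects the gate a clone came from. Genes were amplified by colony PCR, sequenced by MiSeq 2 × 250 and filtered by CDR length.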

| Sequence | polyreactivity (PSR sort gate) |
| --- | --- |
| QVQLVESGGGLVQAGGSLRLSCAASGRIFRRNAMGWYRQAPGKERELVAAITSNGGRTYYADSVKGRFTISRDNAKNTVYLQMNSLKPEDTAVYYCAADTYDNDYYYWGQGTQVTVSS | high polyreactivity |
| QVQLVESGGGLVQAGGSLRLSCAASGRIFRRNTMGWYRQAPGKERELVAAITSSGGSTYADSVKGRFTISRDNAKNTVYLQMKSLKPEDTAVYYCATYVAYHRGYRTYDHWGQGTQVTVSS | low polyreactivity |
| QVQLVESGGGLVQAGGSLRLSCAASGRIFRRNTMGWYRQAPGKERELVAAITSSGGSTYADSVKGRFTISRDNAKNTVYLQMNSLTPEDTAVYYCATYVAYHRGYRTYDHWGQGTHVTVSS | low polyreactivity |
| QVQLVESGGGLVQAGGSLRLSCAASGRIFRRNTMGWYRQAPGKERELVATISKNGGSTYYADSVKGRFTISRDNAKNTVYLQMNSLKPADTAVYYCNAPDPSSTSYFPYELGYWGQGTQVTVSS | high polyreactivity |
| QVQLVESGGGLVQAGGSLRLSCAASGRIFRRYAMGWYRQAPAKERELVAAITTSGGSTYYADSVKGRFTISRDNAKNTVYLQMNSQNPADTAVYYCNTVSPYKYDWGLGTQVTVSS | high polyreactivity |
| QVQLVESGGGLVQAGGSLRLSCAASGRIFRRYAMGWYRQAPGKEREFVAAITKSGGSTYYADSVKGRFTISRDNAKNTVYLQMNSLKPEDTAVYYCATYPQYYFGYDYWGQGTQVTVSS | high polyreactivity |
| QVQLVESGGGLVQAGGSLRLSCAASGRIFRRYAMGWYRQAPGKERELVAAISWSGGATYYADSVKGRFTISRDNAKNTVYLQMNSLKPEDTAVYYCAALRYQQCRAYDYWGQGTLVTVSS | high polyreactivity |
| QVQLVESGGGLVQAGGSLRLSCAASGRIFRRYTMGWSRQAPGKERELVAAISSGGSTNYADSVKGRFTISRDNANNTVYLQMNSLKPEDTAVYYCAARFASRQHTIYYYWGQGTQVTVSS | high polyreactivity |
| QVQLVESGGGLVQAGGSLRLSCAASGRIFRRYTMGWYRQAPGKERELVAAITWNGGRTYYADSVKGRFTISRDNAKNTVYLQMNSLKPEDTAVYYCAARRQGGYGYDYWGQGTQVTVSS | high polyreactivity |
| QVQLVESGGGLVQAGGSLRLSCAASGRIFRRYVMVWSRQAPGKERELVARIRIRDSNTYYADSVKGRFTISRDNAKNTVYLQMNSLKPEDTAVYYCAVVANYVYSKYDYWGQGTLVTVSS | high polyreactivity |
| QVQLVESGGGLVQAGGSLRLSCAASGRIFRSNAMGWYRQAPGKERELVAAINYRGDRTYYADSVKGRFTISRDNAKNTVYLQMYSLKPEDTAVYYCNARRYSIPVSAGGYDSWGQGTQVTVSS | high polyreactivity |
| QVQLVESGGGLVQAGGSLRLSCAASGRIFRSNAMGWYRQAPGKERELVATISRRGGSTYYADSVKGRFTISRDNAKNTVYLQMNSLKPEDTAVYFCNTRNSGSLDLYNTMDYWGQGTQVTVSS | high polyreactivity |
| QVQLVESGGGLVQAGGSLRLSCAASGRIFRSYAMGWYRQAPGKERELVAAITKSGGGTYYADTVKGRFTISRDNAKNTVYLQMNSMKPEDTAVYYCGARGHCGYYYWGQGTQVTVSS | high polyreactivity |
| QVQLVESGGGLVQAGGSLRLSCAASGRIFRTNAQGWYRQAPGKERELVAAITRGGTTNYADSVKGRFTISRDNAKNTVYLQMNSLKPEDTAVYYCATRLSGWRYYLARYDYWGQGTQVTVSS | low polyreactivity |
| QVQLVESGGGLVQAGGSLRLSCAASGRIFRTNTMGWYRQAPGKERELVAAITRGGSTYYADSVKGRFTISRDNAKNTVYLQMNSLKPEDTAVYYCAASRYYNSVHNGGDYWGQGTQVTVSS | high polyreactivity |
| QVQLVESGGGLVQAGGSLRLSCAASGRIFRVNAMGWYRQAPGKERELVAAISGRGGSTYYADSVKGRFTISRDNANNTVYLQMNSLKPEDTAVYYCAKKSFSYGYNSYDYWGQGTQVTVSS | high polyreactivity |
| QVQLVESGGGLVQAGGSLRLSCAASGRIFRVYAMGWYRPAPGKERELVAAITSGGTTYADSVKGRFTISRDNAKNTVYLQMYSLKPEDTAVYYCAARHAYPYRRGDFNYWGQGTQVTVSS | high polyreactivity |
| QVQLVESGGGLVQAGGSLRLSCAASGRIFRVYAMGWYRQAPGKERELVAAISSRGGRTYYADSVKGRFTISRDNAKNTVYLQMNSLKPEDTAVYYCAADGRSSSRATSRYDYWGQGTQVTVSS | high polyreactivity |
| QVQLVESGGGLVQAGGSLRLSCAASGRIFRVYAMGWYRQAPGKERELVAAITRGGSTYYADSVKGRFTISRDNAKNTVYLQMNSLKPEDTAVYYCAARTWHRYDYWGQGTQVTVSS | high polyreactivity |
| QVQLVESGGGLVQAGGSLRLSCAASGRIFRVYAMGWYRQAPGKETELVAAISRTGGSTYYADSVKGRFTISRDNAKNTVYLQMNSLKPEDTAVYYCAALVNGNFPTVDYWGQGTQVTVSS | high polyreactivity |

| Sequence | polyreactivity (PSR sort gate) |
| --- | --- |
| QVQLVESGGGLVQAGGSLRLSCAASGRIFRVYTMGWYRQAPGKERELVAGITWDGGGTYYADSVKGRFTISRDNAKNTVYLQMNSLKPEDTAVYYCNAVVQGFYLAWLYTLDSWGQGTQVTVSS | low polyreactivity |
| QVQLVESGGGLVQAGGSLRLSCAASGRIFRWNAMGWYRQAPGKEREFVAAISWNGGRTYYADSVMGRFTISRDNAKNTVYLQMNSLKPEDPAVYYCAATHSVPDLLSGDYWGQGTQVTVSS | low polyreactivity |
| QVQLVESGGGLVQAGGSLRLSCAASGRIFRWNAMGWYRQAPGKERELVAAISASGGRTYYADSVKGRFTISRDNAKNTVYLQMISLKPEDTAVYYCAAGPVYYYVPIGYDYWGQGTQVTVSS | high polyreactivity |
| QVQLVESGGGLVQAGGSLRLSCAASGRIFRWSVRGWYRQAPGKERELVAAISYGSGSTYYADSVKGRFTISRDNAKNTVYLQMNSLKPEDTAVYYCAADSQAARYHAYDYWGQGTQVTVSS | high polyreactivity |
| QVQLVESGGGLVQAGGSLRLSCAASGRIFRWYAMGWYRQAPGKERELVASISRGGSTYYADSVKGRFTISRDNAKNTVYLQMNSLKPEDTAVYYCNVKYKYDRAYGEYDYWGQGTQVTVSS | high polyreactivity |
| QVQLVESGGGLVQAGGSLRLSCAASGRIFRWYGMGWYRQAPGKERELVAAITSGGSTHYADSVKGRFTISRDNAKNTVYLQMNSLKPEDTAVYYCAADPYHLQTRFSGLAEFYYWGQGTQVTVSS | low polyreactivity |
| QVQLVESGGGLVQAGGSLRLSCAASGRIFRWYGMGWYRQAPRKERELFAAISGRGGSTYYADSVKGRFTISRDIAKNTVYLQMNSLKPEDSGVYYCKKDPYYIYRPGSGQGYAFNYWGQGTQVTVSS | high polyreactivity |
| QVQLVESGGGLVQAGGSLRLSCAASGRIFRWYTMGWYRQAPGKEREFVAAITWSDTSTSYADSVKGRFTISRDNAKKTVYLQMNSLKPEDTAVYYCNAATRSSVTFGWYIEYDYWGQGTQVTVSS | low polyreactivity |
| QVQLVESGGGLVQAGGSLRLSCAASGRIFRWYTMGWYRQAPGKEREFVDAITWSDTSTSYADSVKGRFTISRDNAKNTVYLQMNSLKPEDTAVYYCNAATRSSVTFGWYIEYDYWGQGTQVTVSS | low polyreactivity |
| QVQLVESGGGLVQAGGSLRLSCAASGRIFRWYVMGWYRQAPGKERELVASISSGGITYYADSVKGRFTISRDNAKNTVYLQMNSLKPEDTAVYYCNARRQPYRTSGSEMGYWGQGTQVTVSS | high polyreactivity |
| QVQLVESGGGLVQAGGSLRLSCAASGRIFRYNAMGWYRQAPGKERELVAAITGCGGSTYYADSVKGRFTISRDNAKNTVYLQMNSLKPEDTAVYYCNTYTYYSRMDYWGQGTQVTVSS | high polyreactivity |
| QVQLVESGGGLVQAGGSLRLSCAASGRIFRYNAMGWYRQAPGKERELVAAITQSGGNTYYADSVKGRFTISRDNAKNTVYLQMNSLKPEDTAVYYCAAATRQFAGQRYGYWGQGTQVTVSS | high polyreactivity |
| QVQLVESGGGLVQAGGSLRLSCAASGRIFRYNAMGWYRQAPGKERELVADINSGGITNYADSVKGRFTISRDNAKNTVYFQKNSLKPEDTAVYYCNTATNLSCGYDSWGQGTQVTVSS | low polyreactivity |
| QVQLVESGGGLVQAGGSLRLSCAASGRIFRYNAMGWYRQAPGKERELVASISSGTSTTYADSVKGRFTISRDYAKNTVYLQMNSLKPEDTAVYYCAAVPSYRGYRGGYSNLWYYYWGQGTQVTVSS | high polyreactivity |
| QVQLVESGGGLVQAGGSLRLSCAASGRIFRYNAMGWYRQAPGKERELVASITSGGSTKYADSVKGRFTISRDNAKNTVYLQMNSLKPEDTAVYYCAAQRATPWPKNDYWGQGTQVTVSS | high polyreactivity |
| QVQLVESGGGLVQAGGSLRLSCAASGRIFRYNAMGWYRQAPGKERELVATISRGGGSTYYADSVKGRFTISRDNAKNTVYLQMNSLKPEDTAVYYCAAVGYYLVKFDYWGQGTQVTVSS | high polyreactivity |
| QVQLVESGGGLVQAGGSLRLSCAASGRIFRYNTMGWYRQAPGKEREFVAAITQRGVNTYYADSVKGRFTISRDNAKNTVYLQLNSLKPEDTAVYYCNAKRYSYWIYRAYDYWGQGTQVTVSS | low polyreactivity |
| QVQLVESGGGLVQAGGSLRLSCAASGRIFRYNTMGWYRQAPGKERELVAAITYRGGSTYYADSVKGRFTISRDNAKNTVYLQMNSLKPEDTAVYYCAASPARYWYGGKEYDYWGQGTQVTVSS | high polyreactivity |
| QVQLVESGGGLVQAGGSLRLSCAASGRIFRYYAMGWSRQAPGKERELVAAITSDGRTYYADSVKGRVTISRDNAKNTVYLQMNSLKPEDTAVYYCAADHHSYRYGGYYYWGQGTQVTVAS | low polyreactivity |
| QVQLVESGGGLVQAGGSLRLSCAASGRIFRYYAMGWYIQAPGKERELVAAISGSGGSTYYADSVKGRFTISRDNAKNTVYLQMNSLKPEDTAVYYCNARYRIPSGEGDHWGQGTQVTVSS | low polyreactivity |
